# Data reported in article PMC6196502 (Proceedings of the National Academy of Sciences of the …, 2018).
# Experiments:
# [1] = target: the molecule itself; experiment: solid-state NMR
# [2] = target: the molecule itself; experiment: urea-driven polymer dissolution
Protein,binding result [1],binding result [2]
"segmentally labeled mCherry-hnRNPA2-LC D290V (ligated construct, G280C) (domain or fragment, human, UniProt P22626-2 181-341, looked up) MQEVQSSRSGRGGNFGFGDSRGGGGNFGPGPGSNFRGGSDGYGSGRGFGDGYNGYGGGPGGGNFGGSPGYGGGRGGYGGGGPGYGNQGGGYGGGYDNYGCGNYGSGNYNVFGNYNQQPSNYGPMKSGNFGGSRNMGGPYGGGNYGPGGSGGSGGYGGRSRY",binds,–
"GFP-hnRNPA2-LC D290V (domain or fragment, human, UniProt P22626-2 181-341, looked up) MQEVQSSRSGRGGNFGFGDSRGGGGNFGPGPGSNFRGGSDGYGSGRGFGDGYNGYGGGPGGGNFGGSPGYGGGRGGYGGGGPGYGNQGGGYGGGYDNYGGGNYGSGNYNVFGNYNQQPSNYGPMKSGNFGGSRNMGGPYGGGNYGPGGSGGSGGYGGRSRY",–,binds
